Values quoted from earlier work, collected in publication PMC5871670.

How the values were obtained:
Factor XI (Homo sapiens) = Factor XI (Homo sapiens) (UniProt P03951)
[1] = molecular target: cytokeratin 1 (CK1) (Homo sapiens) (UniProt P04264); assay: surface plasmon resonance
gC1q-R (Homo sapiens) = gC1q-R (Homo sapiens) (UniProt Q07021); assay: surface plasmon resonance
uPAR (Homo sapiens) = uPAR (Homo sapiens) (UniProt Q03405); assay: surface plasmon resonance
Chain of UniProt Q03405 (Q03405 23-305): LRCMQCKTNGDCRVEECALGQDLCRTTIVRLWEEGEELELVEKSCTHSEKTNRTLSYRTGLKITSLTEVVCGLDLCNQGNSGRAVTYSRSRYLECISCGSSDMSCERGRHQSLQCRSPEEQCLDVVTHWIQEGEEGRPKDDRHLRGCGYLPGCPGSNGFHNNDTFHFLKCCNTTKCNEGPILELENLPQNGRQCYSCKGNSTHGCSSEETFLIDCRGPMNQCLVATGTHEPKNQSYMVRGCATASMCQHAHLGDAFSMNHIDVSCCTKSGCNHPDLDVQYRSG

Chain of UniProt P04264 (P04264 2-644): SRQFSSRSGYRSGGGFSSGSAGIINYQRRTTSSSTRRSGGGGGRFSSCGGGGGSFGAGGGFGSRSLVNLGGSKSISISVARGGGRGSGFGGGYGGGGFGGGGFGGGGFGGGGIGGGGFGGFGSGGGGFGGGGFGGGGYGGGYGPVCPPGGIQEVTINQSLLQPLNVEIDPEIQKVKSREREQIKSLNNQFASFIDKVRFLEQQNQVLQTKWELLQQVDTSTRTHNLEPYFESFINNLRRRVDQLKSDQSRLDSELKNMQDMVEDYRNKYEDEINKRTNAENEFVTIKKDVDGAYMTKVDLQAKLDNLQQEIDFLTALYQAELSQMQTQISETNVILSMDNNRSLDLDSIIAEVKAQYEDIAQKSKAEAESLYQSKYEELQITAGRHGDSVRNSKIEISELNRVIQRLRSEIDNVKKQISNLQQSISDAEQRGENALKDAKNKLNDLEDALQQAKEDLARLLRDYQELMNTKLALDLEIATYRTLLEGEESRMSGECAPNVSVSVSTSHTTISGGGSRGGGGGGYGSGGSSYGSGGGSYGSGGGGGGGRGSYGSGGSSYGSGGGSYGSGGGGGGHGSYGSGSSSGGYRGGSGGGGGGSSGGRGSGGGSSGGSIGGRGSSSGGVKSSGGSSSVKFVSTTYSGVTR
Chain of UniProt Q07021 (Q07021 74-282): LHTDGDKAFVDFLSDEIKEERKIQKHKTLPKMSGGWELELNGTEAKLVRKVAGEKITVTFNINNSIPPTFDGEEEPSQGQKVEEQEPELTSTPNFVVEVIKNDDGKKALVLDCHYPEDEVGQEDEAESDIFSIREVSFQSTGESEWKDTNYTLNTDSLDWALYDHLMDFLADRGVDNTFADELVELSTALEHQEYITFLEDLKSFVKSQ
Chain of UniProt P03951 (P03951 388-625): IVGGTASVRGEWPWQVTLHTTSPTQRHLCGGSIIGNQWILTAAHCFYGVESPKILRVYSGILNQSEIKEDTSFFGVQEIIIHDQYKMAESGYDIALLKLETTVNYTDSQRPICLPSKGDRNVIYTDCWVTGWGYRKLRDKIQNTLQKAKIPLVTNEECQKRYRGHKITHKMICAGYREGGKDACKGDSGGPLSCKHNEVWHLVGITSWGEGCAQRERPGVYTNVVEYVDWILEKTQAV

Row | Substance | Kd (Factor XI (Homo sapiens)) | Kd [1] | Kd (gC1q-R (Homo sapiens)) | Kd (uPAR (Homo sapiens))
1 | GPIbα (from UniProt P07359) | 52 nM |  |  | 
2 | high molecular weight kininogen (HK) (from UniProt P01042) |  | 15 nM | 0.8 nM | 2300 nM
